Key:
[1] = De-esterification of the penicillin C3 benzyl ester by a number of enzymes, ester disappearance assayed by HPLC; assay type: biochemical; details: enzyme solution 0.2 ml (5 mg/ml) plus ester solution 2 ml, phosphate buffer pH 7.8, 37° C., 16 hours
Procedure: In order to determine the amount of hydrolysis of the benzyl ester of the C3 carboxyl group by a number of enzymes, the ester was subjected, in aqueous reaction mixture, to the action of the particular enzyme using the following procedure and assay procedure.
Ester solution--Ester (50 mg) was added slowly to stirred 0.25 M, pH 7.8 phosphate buffer (1 ml). When the ester was dissolved distilled water (9 ml) was added.
Enzyme solution--Enzyme (5 mg) was dissolved in distilled water (1 ml).
Enzymation--Enzyme solution (0.2 ml) was added to ester solution (2 ml) and the mixture was incubated at 37° C. for 16 hours.
Assay--When the incubation was complete, the reaction mixture was filtered through glass fibre (Whatman GF/A) and assayed for disappearance of the ester by HPLC.
Extent of conversion of ester to acid is determined as follows: [formula]
In table 1 the extent of conversion of ester to acid is shown for a number of samples of the enzyme of the present invention.

[2] = De-esterification of the benzyl ester using subtilisin A at controlled pH, ester and acid assayed by HPLC; assay type: biochemical; details: after 4 hours reaction, 37° C., pH 7.5, subtilisin A 28.16 mg
Procedure: Benzyl 6β-[2-(2-carboxy)-2-thien-3'-ylacetamido 6α-methoxy]penicillanate (0.825 g) was dissolved by adding slowly to stirred 0.25 M, pH 7.8 phosphate buffer (8 ml).
Subtilisin A (28.16 mg) was dissolved in distilled water (10 ml).
Ester solution (3 ml) was added to distilled water (7 ml) and heated to 37° C. in a stirred, water jacketed glass vessel (60 ml) and the pH adjusted to 7.5 by the addition of 1 M NaOH. Subtilisin A solution (10 ml) was heated to 37° C. and added to the ester. The mixture was stirred, the temperature maintained at 37° C. and the pH maintained at 7.5 by the addition of 0.1 M sodium hydroxide.
Samples were removed at appropriate intervals and assayed for ester and acid using the two HPLC systems described in Example 1.

B1: Protease type VII: Protease type VII B amyloliquefaciens, Nagarase; Subtilisin BPN, supplier Sigma (protein, UniProt P00782 108-382, looked up)
Subtilisin BPN': AQSVPYGVSQIKAPALHSQGYTGSNVKVAVIDSGIDSSHPDLKVAGGASMVPSETNPFQDNNSHGTHVAGTVAALNNSIGVLGVAPSASLYAVKVLGADGSGQYSWIINGIEWAIANNMDVINMSLGGPSGSAALKAAVDKAVASGVVVVAAAGNEGTSGSSSTVGYPGKYPSVIAVGAVDSSNQRASFSSVGPELDVMAPGVSIQSTLPGNKYGAYNGTSMASPHVAGAAALILSKHPNWTNTQVRSSLENTTTKLGDSFYYGKGLINVQAAAQ
Conversion (percentage conversion of the ester to 6[2(2-carboxy)-2-thien-3ylacetamid 6methoxy] penicillin) [1]: 78.0%

B2: Alcalase 1.5 M: Subtilisin A from B licheniformis, supplier Novo (protein, UniProt P00780 106-379, looked up)
Subtilisin Carlsberg: AQTVPYGIPLIKADKVQAQGFKGANVKVAVLDTGIQASHPDLNVVGGASFVAGEAYNTDGNGHGTHVAGTVAALDNTTGVLGVAPSVSLYAVKVLNSSGSGSYSGIVSGIEWATTNGMDVINMSLGGASGSTAMKQAVDNAYAKGVVVVAAAGNSGSSGNTNTIGYPAKYDSVIAVGAVDSNSNRASFSSVGAELEVMAPGAGVYSTYPTNTYATLNGTSMASPHVAGAAALILSKHPNLSASQVRNRLSSTATYLGSSFYYGKGLINVEAAAQ
Conversion (percentage conversion of the ester to 6[2(2-carboxy)-2-thien-3ylacetamid 6methoxy] penicillin) [1]: 88.6%

B3: Protease type VIII: Protease type VIII B subtilis, Subtilisin Carlsberg; Subtilopeptidase A, supplier Sigma (protein, UniProt P00780 106-379, looked up)
Subtilisin Carlsberg: AQTVPYGIPLIKADKVQAQGFKGANVKVAVLDTGIQASHPDLNVVGGASFVAGEAYNTDGNGHGTHVAGTVAALDNTTGVLGVAPSVSLYAVKVLNSSGSGSYSGIVSGIEWATTNGMDVINMSLGGASGSTAMKQAVDNAYAKGVVVVAAAGNSGSSGNTNTIGYPAKYDSVIAVGAVDSNSNRASFSSVGAELEVMAPGAGVYSTYPTNTYATLNGTSMASPHVAGAAALILSKHPNLSASQVRNRLSSTATYLGSSFYYGKGLINVEAAAQ
Conversion (percentage conversion of the ester to 6[2(2-carboxy)-2-thien-3ylacetamid 6methoxy] penicillin) [1]: 89.0%

B4: Subtilisin A: Subtilisin A, B licheniformis, supplier Novo; alkaline microbial serine proteinase EC 3.4.21.14 (protein, UniProt P00780 106-379, looked up)
Subtilisin Carlsberg: AQTVPYGIPLIKADKVQAQGFKGANVKVAVLDTGIQASHPDLNVVGGASFVAGEAYNTDGNGHGTHVAGTVAALDNTTGVLGVAPSVSLYAVKVLNSSGSGSYSGIVSGIEWATTNGMDVINMSLGGASGSTAMKQAVDNAYAKGVVVVAAAGNSGSSGNTNTIGYPAKYDSVIAVGAVDSNSNRASFSSVGAELEVMAPGAGVYSTYPTNTYATLNGTSMASPHVAGAAALILSKHPNLSASQVRNRLSSTATYLGSSFYYGKGLINVEAAAQ
Conversion (percentage conversion of the ester to 6[2(2-carboxy)-2-thien-3ylacetamid 6methoxy] penicillin) [1]: 88.8%
conversion of ester to acid [2]: 88%

B5: Alcalase 0.6 L: Subtilisin A from B licheniformis, supplier Novo (protein, UniProt P00780 106-379, looked up)
Subtilisin Carlsberg: AQTVPYGIPLIKADKVQAQGFKGANVKVAVLDTGIQASHPDLNVVGGASFVAGEAYNTDGNGHGTHVAGTVAALDNTTGVLGVAPSVSLYAVKVLNSSGSGSYSGIVSGIEWATTNGMDVINMSLGGASGSTAMKQAVDNAYAKGVVVVAAAGNSGSSGNTNTIGYPAKYDSVIAVGAVDSNSNRASFSSVGAELEVMAPGAGVYSTYPTNTYATLNGTSMASPHVAGAAALILSKHPNLSASQVRNRLSSTATYLGSSFYYGKGLINVEAAAQ
Conversion (percentage conversion of the ester to 6[2(2-carboxy)-2-thien-3ylacetamid 6methoxy] penicillin) [1]: 88.0%

B6: Proteinase D: Proteinase D (Subtilisin A) B licheniformis, supplier ABM (protein, UniProt P00780 106-379, looked up)
Subtilisin Carlsberg: AQTVPYGIPLIKADKVQAQGFKGANVKVAVLDTGIQASHPDLNVVGGASFVAGEAYNTDGNGHGTHVAGTVAALDNTTGVLGVAPSVSLYAVKVLNSSGSGSYSGIVSGIEWATTNGMDVINMSLGGASGSTAMKQAVDNAYAKGVVVVAAAGNSGSSGNTNTIGYPAKYDSVIAVGAVDSNSNRASFSSVGAELEVMAPGAGVYSTYPTNTYATLNGTSMASPHVAGAAALILSKHPNLSASQVRNRLSSTATYLGSSFYYGKGLINVEAAAQ
Conversion (percentage conversion of the ester to 6[2(2-carboxy)-2-thien-3ylacetamid 6methoxy] penicillin) [1]: 100.0%

B7: Protease Bacterial: Protease Bacterial (Subtilisin A) B Sublitisin, supplier CP (protein, UniProt P00780 106-379, looked up)
Subtilisin Carlsberg: AQTVPYGIPLIKADKVQAQGFKGANVKVAVLDTGIQASHPDLNVVGGASFVAGEAYNTDGNGHGTHVAGTVAALDNTTGVLGVAPSVSLYAVKVLNSSGSGSYSGIVSGIEWATTNGMDVINMSLGGASGSTAMKQAVDNAYAKGVVVVAAAGNSGSSGNTNTIGYPAKYDSVIAVGAVDSNSNRASFSSVGAELEVMAPGAGVYSTYPTNTYATLNGTSMASPHVAGAAALILSKHPNLSASQVRNRLSSTATYLGSSFYYGKGLINVEAAAQ
Conversion (percentage conversion of the ester to 6[2(2-carboxy)-2-thien-3ylacetamid 6methoxy] penicillin) [1]: 91.7%

B8: Protease type XI: Protease type XI Tritirachium album Proteinase K, supplier Sigma (protein, UniProt P06873 106-384, looked up)
Proteinase K: AAQTNAPWGLARISSTSPGTSTYYYDESAGQGSCVYVIDTGIEASHPEFEGRAQMVKTYYYSSRDGNGHGTHCAGTVGSRTYGVAKKTQLFGVKVLDDNGSGQYSTIIAGMDFVASDKNNRNCPKGVVASLSLGGGYSSSVNSAAARLQSSGVMVAVAAGNNNADARNYSPASEPSVCTVGASDRYDRRSSFSNYGSVLDIFGPGTSILSTWIGGSTRSISGTSMATPHVAGLAAYLMTLGKTTAASACRYIADTANKGDLSNIPFGTVNLLAYNNYQA
Conversion (percentage conversion of the ester to 6[2(2-carboxy)-2-thien-3ylacetamid 6methoxy] penicillin) [1]: 61.0%
